# According to patent US11161912B2, “Heparanase-neutralizing monoclonal antibodies” (Technion Research & Development Foundation Limited, priority 2015, dated 2021):
# B1: mAb 9E8: monoclonal IgM raised against KKDC peptide (Lys158-Asn171) of heparanase; VH SEQ ID NO: 7, VL SEQ ID NO: 8 (antibody)
# VH: EVKLLESGGGLVQPGGSLKLSCAASGFDFSRYWMSWVRQAPGKGLEWIGEINPDSSTINYTPSLKDKFIISRDNAKNTLYLQMSKVRSEDTALYYCARRGYEGNYAMDYWGQGTSVTVSSESQSFPNVFPLVSCESPLSDKNLVAMGCLAR
# VL: DIVMTQAAPSVPVTPGESVSISCRSSKSLLHSNGNTYLYWFLQRPGQSPQLLIYRMSNLASGVPDRFSGSGSGTAFTLRISRVEAEDVGVYYCMQHLEYPFTFGSGTKLEIKRADAAPTVSIFPPSSEQLTSGGASVVCFL
# modifications: IgM constant regions
# Assays:
# [1] = tested on: ESb mouse T-lymphoma cells; assay: ESb T-lymphoma spontaneous liver metastasis and survival; format: in vivo; details: ESb, mAb 500 μg/mouse every other day, 3 weeks
# Experimental: Lymphoma cells were also inoculated subcutaneously at the right flank of 6-weeks-old NOD/SCID mice (human cell lines) or C57BL/6 mice (E1-4 mouse lymphoma cells) (n=7). Mice were treated with heparanase inhibitors (PG545; SST0001) or neutralizing antibodies and xenografts size was determined by externally measuring the tumors in 2 dimensions using a caliper. At the end of the experiment, mice were sacrificed; tumor xenografts were removed, weighed and fixed for histological and immunohistochemical analyses (Weissmann et al, 2016, Proc Natl Acad Sci USA 113:704-709). ESb mouse T-lymphoma cells (5×10^5) were similarly inoculated subcutaneously into SCID mice and spontaneous metastasis to the liver (Vlodaysky et al., 1983, Cancer Res 43:2704-2711) was examined after 3 weeks of treatment with PG545 or the neutralizing mAb, as described above. All animal experiments were approved by the Animal Care Committee of the Technion, Haifa, Israel.
# FIG. 3A. HEK 293 cells were incubated with latent 65 kDa (upper panel) or GS3 constitutively active heparanase (1 μg/ml; third panel) and the indicated mAbs (10 μg/ml). The cell medium was aspirated at the time designated and cell lysates were subjected to immunoblotting applying anti-heparanase antibody (upper and third panels). […] Heparanase-transfected 293 cells were grown with control mouse IgM or mAb 9E8 for two days. Cells were then fixed with methanol and subjected to immunofluorescent staining applying anti heparanase antibody (second panel) or lysed and subjected to immunoblotting applying anti-heparanase antibody (fourth panel). Purified recombinant active heparanase (200 ng) was pre-incubated with control mouse IgM ( ? ), mAb 8A5 ( ? ), mAb 9E8 ( ? ), all at 2 μg/ml, for 2 h in serum-free RPMI medium on ice. The mixture was then applied onto ^35S-labeled ECM-coated dishes and heparanase activity was determined as described above (lower panel). FIG. 3B, C. […] Quantification of the extent of CD45 staining is shown graphically in the lower panel. […]
# [2] = tested on: LM2-4 human breast carcinoma cells; assay: LM2-4 breast carcinoma experimental lung metastasis; format: in vivo; details: mAb 500 μg/mouse with the cells, lungs after 18 days
# Experimental: Experimental metastasis. B16 BL6 mouse melanoma (2×10^5) or LM2-4 human breast cancer cells (2×10^6) were injected into the tail vein of C57/BL mice or SCID/Beige mice (respectively) together with the indicated compound, essentially as described (Hostettler N, et al. 2007, FASEB J 21(13):3562-3572). Lungs were harvested 18 days thereafter and metastases occurrence was determined following fixation by gross inspection and histology (Weissmann et al, 2016, Proc Natl Acad Sci USA 113:704-709).
# FIG. 5A. Cell invasion. Cal-27 tongue carcinoma (left panels) and U87 glioma cells (right panels) (2×10^5) were plated onto Matrigel-coated filters in the presence of mouse IgM/IgG (upper panels), mAb 9E8 (2 μg; second left and middle panels). Invading cells adhering to the lower side of the membrane were visualized after 6 h. The number of invading cells per high power field is shown graphically at the lower panels. FIG. 5B, FIG. 5C. Tumor metastasis. FIG. 5B Mouse B16 melanoma cells (2×10^5) were inoculated into the tail vein of C57Bl/6 mice (n=7) together with rabbit IgG (300 μg; Con), Ab #1453 (250 μg), mAb 9E8 (500 μg) or SST0001 (400 μg). Lungs were harvested after 18 days, photographed (lower panel) and the number of metastatic lesions was counted (upper panel; p=0.001, 0.0006, 0.0001 for Con vs. Ab 1453, Con vs. mAb 9E8 and Con vs. SST0001, respectively). […]
# Cal-27 tongue carcinoma = assay: Matrigel cell invasion, Cal-27 tongue carcinoma cells; format: cell-based, human; details: Cal-27 cells, mAb 2 μg, 6 h
# Experimental: Cell invasion. Matrigel invasion assay was performed using modified Boyden chambers with polycarbonate Nucleopore membrane (Corning, Corning, N.Y.), essentially as described (17). Briefly, filters (6.5 mm in diameter, 8 μm pore-size) were coated with Matrigel (30 μl); Cells (2×10^5) in 100 μl of serum-free medium were seeded in triplicate on the upper part of each chamber, and the lower compartment was filled with 600 μl medium supplemented with 10% FCS. After incubation for 5 h at 37° C. in a 5% CO2 incubator, non-invading cells on the upper surface of the filter were wiped with a cotton swab, and migrated cells on the lower surface of the filter were fixed, stained with 0.5% crystal violet (Sigma) and counted by examination of at least seven microscopic fields.
# FIG. 5A. Cell invasion. Cal-27 tongue carcinoma (left panels) and U87 glioma cells (right panels) (2×10^5) were plated onto Matrigel-coated filters in the presence of mouse IgM/IgG (upper panels), mAb 9E8 (2 μg; second left and middle panels). Invading cells adhering to the lower side of the membrane were visualized after 6 h. […] Lungs were harvested after 18 days, photographed (lower panel) and the number of metastatic lesions was counted (upper panel; p=0.001, 0.0006, 0.0001 for Con vs. Ab 1453, Con vs. mAb 9E8 and Con vs. SST0001, respectively). […]
molecule,measurement,setting,value
B1,inhibition of liver metastasis (CD45 staining),[1],4-5 fold
same,experimental lung metastasis,[2],inhibitory effect
same,cell invasion,Cal-27 tongue carcinoma,inhibitory effect
